Key:
[1] = test system: K4 kissing-loop RNA reporter; assay: apparent KD of K4 kissing-loop reporter; higher = weaker reporter binding; conditions: Eterna round: R107;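 also: bound reporter read as fluorescence of individual clusters on recovered sequencing chips by microscopy, with normalized cluster intensities fitted with a binding model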
Procedure: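 RNA-MaP round R107: designed RNA switches with theophylline, tryptophan, arginine or FMN aptamers are transcribed on-chip within common flanks. They are titrated with a labelled K4 kissing-loop RNA reporter in RNA-MaP buffer (100 mM Tris pH 7.5, 80 mM KCl, 4 mM MgCl2), without ligand or with the indicated ligand. Median apparent KD per design.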

MS2 coat protein = assay: apparent KD of MS2 coat protein; designed switch direction (-1 OFF switch, 1 ON switch): -1; higher = weaker reporter binding
Method in brief: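 The apparent KD reported per design is the median over clusters of curve fits to normalised cluster fluorescence. The RNA switches were transcribed on Illumina chips by stalled E. coli RNA polymerase. SNAP-549-labelled MS2 coat protein was titrated from 0.7 or 1.5 nM, doubling up to 3 µM, in Tris-HCl pH 7.5 buffer containing KCl, MgCl2, BSA, DTT, tRNA and Tween-20, with no input, 200 uM small-molecule ligand, or an oligonucleotide input.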

[2] = input ligand: theophylline 20 uM
[3] = input ligand: tryptophan 2.4 mM
[4] = Eterna round: R95, input ligand: microRNA oligo, concentration not stated
[5] = input ligand: microRNA oligo, concentration not stated

Sequence	apparent KD of K4 kissing-loop reporter ([1]; input ligand: FMN 200 uM)	apparent KD of K4 kissing-loop reporter ([1]; input ligand: arginine 13.2 mM)	apparent KD of K4 kissing-loop reporter ([1]; input ligand: none)	apparent KD of K4 kissing-loop reporter [1, 2]	apparent KD of K4 kissing-loop reporter [1, 3]	apparent KD of MS2 coat protein (MS2 coat protein; [4])	also measured
AAAUUCUUUUUUUUAUAUAACAAUUCAGAAGGAGCGUGGUAGAACACAGGUAGGUCGCUGAAUAUAAGACUAGUGAUGUUAGUAA [JR_SSArginiA_Sub010]	153 nM	192 nM	203 nM	214 nM	153 nM		
AAAUUCUUUUUUUUAUUUAACUUUUCAGAAGGAGCGUGGUAGUACACAGGUAGGUCGCUGAAUUUUGGGCUAGUGAUGUUAGUUA [whbob_SS_Arginine_A_sa113]	221 nM	217 nM	258 nM	311 nM	193 nM		
AACACCCGCUAUGAUACCAGUGAAGUGAUGUUUUACUCCGGGCGUAAGACAAAGGUCAGCCACCCUUGGCAGCAUAUCCGCGUAU [theeternabot_exclusion_KL_Theo_B_35]	721 nM	418 nM	594 nM	490 nM	440 nM		
AACAUUUUCAGAAGGAGCGUGAAUUAUUCAUAAUUAUAUUAUACGAGUGAUGUUCGUAUUUCACAGGUAGGUCGCUGAUAUAUUA [JR_SSArginiB_Sub001]	113 nM	133 nM	114 nM	133 nM	107 nM		
AACCGUGUGGCGGCCGCCACUAGUCUCCAGUGAUGUUGGAGAGACCACGUAAGUGGUCUCCGACAUAGGACCGGGCCAUAUGGAA [Same State - Tryptophan B (Freestyle 25)]	547 nM	339 nM	361 nM	531 nM	692 nM		
AACGUUUUGAGAAGGAGCGCGUUAAGCAGUGAUGUUGCUGUAUUUUAUCCAAUUCAUAUAUCGCAGGUAGGUCGCUCAAUACGUA [JR_Nu_SSArginiB_Sub027]	574 nM	496 nM	557 nM	534 nM	432 nM		
AACUCUCAGACACUUGAGUGAUGUUCAGACCGAGGACCGGUACGGCCGCCACUCGGGUCUGAGAGAGGUUAUCAAAGAUAGCCAA [Omei KL Tryp A SS A v7]	280 nM	222 nM	336 nM	292 nM	905 nM		
AACUGUCAAGGAACUUGCAACAAAGGUGAUACCAGCAUCGAAAGAUGCCCUUGGCAGCACCAACUUGCAGUGAUGUUGCAAGUAA [(T)'-(H)'-(T1)-(T2)-(H1)-(H2)_Design7]	300 nM	243 nM	322 nM	402 nM	286 nM		
AAGAAUAAUCUUGCAGUGAUGUUGCAAGAUACCAGCAUCGAAAGAUGCCCUUGGCAGCUUGAAACUGCAAGAAUCAAGCUGAAUA [Design1]	150 nM	131 nM	140 nM	145 nM	137 nM		
AAGCAGUCACUCGAAGCCAUCGAAGAUGGACGAGGACCGGUACGGCCGCCACUCGGAGUGAUGUUCCGAAGACUGCAAAAUAAAA	312 nM	274 nM	296 nM	330 nM	469 nM		
UUUUAACAUGAGGAUCACCCAUGUGAGGAUAUCGAAAUUUAUAUUUAUAUUAAUAUUUCGAGAAGGCACAUUUU [JMF 81] (puzzle: Exclusion 1)						176 nM	
UUUUAACAUGAGGAUCACCCAUGUGAGGAUAUCGAAAUUUAUAUUUAUAUUUAUAUUACGAGAAGGCACAUUUU [JMF 98] (puzzle: Exclusion 1)						84.3 nM	
UUUUACAUAGGAUAUAGUUGCUUUUACAUGAGGAUCACCCAUGUCUCUCCUCUCUCUCUUCUAGAAGGAUGUUUCU [JR_E5_Sub011] (Eterna round: R96, puzzle: Exclusion 5)							apparent KD of MS2 coat protein (MS2 coat protein; input ligand: FMN 200 uM): 55.3 nM; apparent KD of MS2 coat protein (MS2 coat protein; [5]): 35.7 nM; apparent KD of MS2 coat protein (MS2 coat protein; input ligand: none): 47 nM
UUUUACAUAGGAUAUAGUUGCUUUUACAUGAGGAUCACCCAUGUCUCUCCUCUCUCUCUUCUAGAAGGAUGUUUCU [JR_E5_Sub011] (puzzle: Exclusion 5)						53.3 nM	
UUUUAGGGAGGAUAUACAUUUUUUUUAUUAUCCUCAUUAAUACAUGAGGAUCACCCAUGUAGAAGGCCCAUUUU [Mat - Exclusion 2 - Mod of Hog - D84] (puzzle: Exclusion 2)						47.9 nM	
UUUUAGUCAGGAUAUACAUUUUUUUAAUUAUUUAUAAUAUUACAUGAGGAUCACCCAUGUAGAAGGGACAUUUU [My Design] (puzzle: Exclusion 2)						28.6 nM	
UUUUGCUCAGGAUAUACAUGAGGAUCACCCAUGUAUAUUGAAAAUAAUACAUGGGAAUGUAGAAGGGAGCUCAU [Omei Ex3 Pseudoloop 20] (Eterna round: R97, puzzle: Exclusion 3)							apparent KD of MS2 coat protein (MS2 coat protein; input ligand: FMN 200 uM): 127 nM; apparent KD of MS2 coat protein (MS2 coat protein; input ligand: none): 168 nM
UUUUGGCAUGUAGGAUAUGGGUCCGAUUGGGAUUUAGAAGGACAUGAGGAUCACCCAUGUGCCCUUACUUGGUGUUUUUUUUUU [EXclNG1-LROPPY20] (Eterna round: R96, puzzle: Exclusion NG 1)							apparent KD of MS2 coat protein (MS2 coat protein; input ligand: FMN 200 uM): 126 nM; apparent KD of MS2 coat protein (MS2 coat protein; [5]): 44.6 nM; apparent KD of MS2 coat protein (MS2 coat protein; input ligand: none): 91.6 nM
UUUUUACAUGAGGAUCACCCAUGUGAGGAUAUGGUUUCGCUGGCCGUAGCCAGUGGAACCAGAAGGCGCAUGAU [Mat - Exclusion 1 - JL Mod - D8] (Eterna round: R97, puzzle: Exclusion 1)							apparent KD of MS2 coat protein (MS2 coat protein; input ligand: FMN 200 uM): 374 nM; apparent KD of MS2 coat protein (MS2 coat protein; input ligand: none): 84.7 nM
UUUUUACGAGGAUAUCGAUUGUGGUACAUGAGGAUCACCCAUGUAUGUGAUAUUGUAUUUCGAGAAGGCGUUCAGU [JR_E5_Sub060] (puzzle: Exclusion 5)						21.5 nM	
UUUUUCUCAGGAUAUACAUGAGGAUCACCCAUGUAUAUUGAUGAUAAUACAUGGGAAUGUAGAAGGGAGCUCAU [Omei Ex3 Pseudoloop 16] (Eterna round: R97, puzzle: Exclusion 3)							apparent KD of MS2 coat protein (MS2 coat protein; input ligand: FMN 200 uM): 87.9 nM; apparent KD of MS2 coat protein (MS2 coat protein; input ligand: none): 95.7 nM
UUUUUUGUUGUGAGGAUAUCGUUGUUGUUGUGGAUCGAGAAGGCACAUGAGGAUCACCCAUGUUUGUUGUGGUU [JR_BMOE4_Sub086] (Eterna round: R96, puzzle: Brourd's mod of Exclusion 4)							apparent KD of MS2 coat protein (MS2 coat protein; input ligand: FMN 200 uM): 272 nM; apparent KD of MS2 coat protein (MS2 coat protein; [5]): 81.2 nM; apparent KD of MS2 coat protein (MS2 coat protein; input ligand: none): 109 nM
UUUUUUGUUGUGAGGAUAUCGUUGUUGUUGUGGAUCGAGAAGGCACAUGAGGAUCACCCAUGUUUGUUGUGGUU [JR_BMOE4_Sub086] (puzzle: Brourd's mod of Exclusion 4)						83.7 nM	

Reference: the supplement of paper PMC9170038
